Data published in article PMC6275079.

Biological target: caveolin-1 (rat (endogenous in cerebellar granule neurons)) (UniProt P41350)
Experiment: co-IP; anti-caveolin-1 (sc-894) on ImmunoCruz IP/WB Optima matrix; 400 µg of CGN lysate treated with 1% Triton X-100 for 30 min, incubated overnight at 4 °C, washed with Tris-buffered saline; PKA and CaMK-II detected by Western blot in precipitate and supernatant, percent by densitometry

Chain of UniProt P41350 (P41350 whole entry): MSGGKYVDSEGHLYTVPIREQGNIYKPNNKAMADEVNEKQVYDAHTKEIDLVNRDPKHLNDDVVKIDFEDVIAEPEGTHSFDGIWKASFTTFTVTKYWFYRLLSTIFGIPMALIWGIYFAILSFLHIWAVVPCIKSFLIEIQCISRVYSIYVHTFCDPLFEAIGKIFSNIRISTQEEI

Row | percentage of coimmunoprecipitation with caveolin-1 | Substance
1 | 39% | calmodulin-dependent protein kinase II (from UniProt P11275 1-478) (enzyme)
2 | 16% | protein kinase A (from UniProt P27791 1-351) (enzyme)
